Test [1] concerns the target T1, Hu DR5 ECD (SEQ ID NO: 105) (Homo sapiens, UniProt O14763, A67V/E190F/V191A).
T1 construct: Human DR5-ECD long form polypeptide
The experiment in a line: Phage competition Ic50 ELISA (phagemid binding assay), competitor DR5 ECD. The settings on record: Positive clones, competitor DR5 ECD (Comp/DR5 EcD). On the procedure:
The Apo-2L receptor binding peptides disclosed herein were identified from the bacteriophage peptide library constructs shown in Tables I and II using the following phagemid binding assay.
1. Coat microtiter plate wells with 80 ul of 1 ug/ml Apo-2L receptor DR5 ECD (SEQ ID NO: 105) (in 50 mM sodium carbonate pH 9.6) at 4° C. overnight.
2. Remove coat and block with 200 ul PBS/0.1% BSA. Incubate 1 hour at room temperature.
3. Prepare competing receptor solutions (100 ul/sample).
Dispense SOul binding buffer to row H through B in a new non-sticky 96-well plate.
Dispense 75 ul competing receptor solution to row A.
Make 3-fold serial dilutions by transferring 25 ul solution along columns except for row H (use fresh tip set for each transfer).
4. Prepare appropriate subsaturating phage dilution (predetermined from phage dilution series).
Transfer 50 ul of phage diluent to each microtiter well of the non-sticky plate. Start at row H then G,F,E,D,C,B,A respectively.
Incubate at R.T. for 2 hours.
5. Shake block off plate which has been coated with DR5 ECD (SEQ ID NO: 105) and rinse 10 times with PBS+0.05% tween 20.
6. Transfer 80 ul the mixture of competing receptor and phage from the non-sticky plate to DR5 ECD coated plate and incubate 20 minutes at room temperature.
7. Make a 1:5000 dilution of HRP conjugate anti-M13 monoclonal Ab (Amersham Pharmacia Biotech) into binding buffer.
Rinse plate 10 times with PBS/tween20 (be thorough here to remove vast excess of non displaying phage).
Add 80 ul of Ab diluent to row H through A.
8. Mix TMB peroxidase substrate and peroxidase solution B at equal volume.
Rinse plate 10 times with PBS/tween20.
Add 80 ul of substrate to row H through A.
Incubate as required to develop and stop with 80 ul 2.5M H2SO4.
A number of bacteriophage clones expressing peptides of interest were generated using the above methods and then purified using limiting dilution. In order to further characterize specific clones of interest (e.g. to determine Ic 50 values), phage clones were grown and then purified using a polyethylene glycol based method as described in Sidhu et al., Methods Enzymol. 328, 333-363 (2000). Alternative methods for generating and purifying bacteriophages are also known in the art. See, e.g. Current Protocols In Molecular Biology, Volume 1, Units 1, 5 and 6, Frederick M. Ausubel et al. eds., 1995.
Phage clones identified using the above methods were grown and then purified using the following polyethylene glycol based method. Briefly, a bacterial culture infected with a phage clone of interest is grown under conditions favorable to phage growth and then centrifuged for 10 min at 2° C. and 16,000 g. The supernatant is then transferred to a fresh centrifuge tube and a 1/5 volume of PEG-NaCl (PEG 8000 (200 g/L), NaCl (146 g/L), autoclaved) is added. The mixture is then incubated for 5 minutes at room temperature. The mixture is then centrifuged as above and the supernatant decanted. The supernatant is then respun briefly and the remaining supernatant removed. The phage pellet is then resuspended in 1/20 volume of PBS (or other analogous buffer). Insoluble matter is then pelleted by centrifugation. The supernatant containing the purified phage is saved and used in assays such as Ic 50 and Ec 50 assays that are described in the following examples.
In the Tables provided herein, “Ic 50” refers to the measure of the concentration of peptide needed to inhibit 50% of Apo-2L (e.g. amino acids 114 to 281 of SEQ ID NO: 1) binding to an Apo-2L receptor molecule (e.g. DR4-IgG (SEQ ID NO: 108) or DR5 ECD (SEQ ID NO: 105) etc.). The peptides are classified such that class 1-class 4 represent a, b, c, and d respectively.

The test system of a further test is Apo-2L.0 and DR5. Put plainly: IC50. The source says:
Table printed on a drawing sheet, FIG._4C
Title: Step 3: Truncation Scan
The patent's description of the figure: FIGS. 4A-4D provide illustrations of the protocols used to modify Apo-2L receptor binding peptides.
Where the first naming reader finds the target: passage: inhibit the interaction between Apo-2L.0 (amino acids 114 to 281 of SEQ ID NO: 1) and DR5 (SEQ ID NOs: 105 and 109)

In test [2] the target is Human DR5-ECD long form polypeptide (human). Put plainly: phage competition ELISA (Comp/DR5 ECD). For orientation: ELISA stands for enzyme-linked immunosorbent assay.
The target is the same in test [3]. The experiment in a line: phage competition ELISA, cross-reactivity.

“3H858-2 (IRVGEVCMTTCEKLM) [Peptide 3H858-2]” came in with an IC50 in test [1] of 66.7 nM. “871-31-S3 (ESRGEVCLTSCERLR) [Peptide 871-31-S3]”: the IC50 in test [1] worked out at 14.9 nM.

In the case of E2A (GAVCLTSCSRLR) [Peptide E2A], in test [1], the IC50 worked out at 49 nM. “Hd5-10: first generation (G1) peptide lead, SEQ ID NO: 14 (NVDQECMTTCTRLRECQLLL)”: the IC50 in test [1] was 78.4 nM.

On to LB940 (GEVCLTSCSRLK), for which, in test [1], the IC50 was over 100 nM. On to EVCMTSCEKLMSA [C1-13], for which the IC50 in the test with Apo-2L.0 and DR5 came to 49 nM. This lies in the double-digit nanomolar range. The molecule LB932 (GEVCLSSCSRLR) had an IC50 in test [1] of over 100 nM. In test [1], “2Hd7-20 (CVAMTSCDKLRLCQLL) [Peptide 2Hd7-20]” displayed an IC50 of 29 nM. In the test on Apo-2L.0 and DR5, EVCMTSCEKLM [C1-11*] yielded an IC50 of 2940 nM. This lies in the single-digit micromolar range. Molecule EVCMTSCEKLMSAL [C1-14] gave a half-maximal inhibitory concentration (IC50) in the test on Apo-2L.0 and DR5 of 39 nM. In the case of G1A (AEVCLTSCSRLR) [Peptide G1A], the IC50 in test [1] is 9.8 nM. Turning to “3H857-13 (VEAGEVCLTLCEKLM) [Peptide 3H857-13]”, in test [1], the 50% inhibitory concentration (IC50) worked out at 167 nM. Same read-out and setting: for LB882 (GEVCLTSCERLR) the value was 14.9 nM; for “2Hd7-1 (CVAMTTCSKLRQCLSA) [Peptide 2Hd7-1]”, 4.9 nM; for LB939 (GEVCLTSCSRVR), over 100 nM. Molecule “2Hd7-2 (CVAMTSCEKLRSCLLL) [Peptide 2Hd7-2]” gave a 50% inhibitory concentration (IC50) in test [1] of 19.6 nM. For the molecule “2Hd7-3 (CVAMTTCDKLRECMAI) [Peptide 2Hd7-3]”, the IC50 in test [1] is 49 nM. LB931 (GEVCMTSCSRLR) registered an IC50 in test [1] of over 100 nM. On the same count and under the same terms, the figure for LB936 (GEVCLTSCERIR) is 9 nM; for LB933 (GEVCLTTCSRIR) it is 23.8 nM. For the molecule EVCMTSCEKLMSALSL, the IC50 with Apo-2L.0 and DR5 turned out to be 79 nM. In the case of “930-S8-4 (AVGEVCLTECSRLIQR) [Peptide 930-S8-4]”, the IC50 in test [1] was found to be 11.2 nM.

“2H9-15 (EVCMTSCDRLKQAFLL) [Peptide 2H9-15]”: in test [1], the IC50 was 78.4 nM.

On to GRVCLTLCSKLR (phage-displayed) [LB954], for which the IC50 in test [2] and in test [3] was 23.5 nM throughout. As for GEVCLTLCSKLR (displayed on phage) [LB952], the IC50 in test [2] and in test [3] was 424 nM each time. GEACLTSCSRLR (phage-displayed) [V3A] registered an IC50 in test [2] of 9.8 nM. Same read-out and setting: for RLPGEVCLTSCERLL (phage-displayed) [871-4-S3] the value was 149 nM; for EVCMTSCEKLMS (displayed on phage) [LB847], 735 nM.

On to CVAMTTCDKLRECMAI (phage-displayed) [2Hd7-3], for which, in test [2], the IC50 was found to be 49 nM. This IC50 lies about 15-fold lower than the previous one. Turning to VEAGEVCLTLCEKLM (phage-displayed) [3H857-13], the IC50 in test [2] is 167 nM. On to ESRGEVCLTSCERLR (phage-displayed) [871-31-S3], for which the concentration for half-maximal inhibition (IC50) in test [2] worked out at 14.9 nM. This IC50 lies about 11-fold lower than the previous one.

QEVCMTSCDKLMKANWMAAM (phage-displayed) [LB867] registered an IC50 in test [2] of 29.4 nM. With GEVCLTECSKLT (phage-displayed) [LB963], the IC50 in test [2] and in test [3] was 11.8 nM each time. EVCMTSCDRLKQAFLL (phage-displayed) [2H9-15] gave an IC50 in test [2] of 78.4 nM.

Molecule EVCMTSCEKLMSAL (phage-displayed) [LB845] had a 50% inhibitory concentration (IC50) in test [2] of 39.2 nM. This IC50 lies about 2-fold lower than the previous one. As for GEVCLTLCSKLT (displayed on phage) [LB956], the IC50 in test [2] and in test [3] was 35.3 nM each time.

As for EVCMTSCEKLMSA (displayed on phage) [LB846], in test [2], the IC50 came out at 49 nM.

The molecule GEVCLTSCARLR (phage-displayed) [S9A] returned an IC50 in test [2] of 12.7 nM. Compared with the last molecule, the IC50 is about 3.9-fold lower. GEVCLTSCERLR (phage-displayed) [LB882] gave an IC50 in test [2] of 14.9 nM. The IC50 values of the last two molecules are within 1.5-fold of each other. Still for that read-out and setting: the figure for GEVCLTMCSRLR (displayed on phage) [LB935] is 4.5 nM. In the case of EVCMTSCEKLM (phage-displayed) [LB848], the IC50 in test [2] was 29400 nM. This IC50 is about 6500-fold higher than that of the molecule before. On to CVAMTTCSKLRQCLSA (phage-displayed) [2Hd7-1], for which, in test [2], the IC50 was 4.9 nM. On the same count and under the same terms, for GEVCLTSCDRLR (phage-displayed) [LB937] the value was 11.9 nM; for CVAMTSCEKLRSCLLL (displayed on phage) [2Hd7-2], 19.6 nM; for FEQGEVCMTLCEKLM (phage-displayed) [3H858-1], 83.3 nM. In the case of GEVCLTLCSRLR (phage-displayed) [LB934], the IC50 in test [2] stood at 3 nM. For GEVCLTLCSRLT (displayed on phage) [LB953], the IC50 in test [2] and in test [3] was 23.5 nM in each case. Molecule GEVCLTTCSRIR (phage-displayed) [LB933] yielded an IC50 in test [2] of 23.8 nM. Still for that read-out and setting: the figure for GEVCLTSCSRIR (displayed on phage) [LB938] is 11.9 nM; for GEVCLTSCSALR (phage-displayed) [R10A] it is 9.8 nM. GEVCLTSCERIR (displayed on phage) [LB936] had an IC50 in test [2] of 9 nM. In test [2], CVAMTSCDKLRLCQLL (phage-displayed) [2Hd7-20] gave an IC50 of 29 nM. Against the preceding molecule, the IC50 is about 3.2-fold higher. Consider EVCMTSCEKLMSALSL (phage-displayed) [2H9-13], for which the 50% inhibitory concentration (IC50) in test [2] is 79.1 nM.

Take GEVCLTECSKLR (displayed on phage) [LB959]: the IC50 in test [2] and in test [3] was 23.5 nM throughout. In the case of GEVCLTECSRLT (phage-displayed) [LB960], the IC50 in test [2] and in test [3] was 17.6 nM each time. For CVAMTTCEKLRLCQSL (phage-displayed) [2Hd7-7], in test [2], the IC50 is 6.9 nM.

One may read the IC50 as the point on the concentration scale where inhibition reaches its midpoint. The low end stands for greater potency, the high end for weaker potency.

These data come from patent publication US20070066800A1, “Apo2l(trail) receptor binding peptides and uses thereof” (priority 2003, published 2007).
